PMC10531801

Tested on: Gp49 (Bacillus phage SPO1)
Test: SPR
Details: EMSA: 20 mM Tris, 50 mM NaCl, pH 7.5, 30 min at 4 C, 2% agarose in 0.5x TBE; SPR: Biacore T100, CM5, 25 C, buffer not stated

AUGAAUAGUUAAACAACGUGG [ssRNA]
Kd: 1860 nM
